Values joined by “and” are separate entries in the source; they are usually repeats but may differ in a detail not shown here. Equal values may be shown once. One block for each binder: values may come before it.
B1: ObgE C-terminal peptide4-AA (peptide)
peptide: LEEIAEEDDEDADDDADEDD
notes: free termini (H-...-OH); also called SBL-OBGE-06; source: synthetic peptide (in-house Fmoc SPPS, HPLC purified)
B3: YbiB (E. coli TrpD2 protein), N-terminally His6-tagged, wild type (natural protein, UniProt P30177 1-320, looked up)
chain: MDYRKIIKEIGRGKNHARDLDRDTARGLYAHMLNGEVPDLELGGVLIALRIKGEGEAEMLGFYEAMQNHTIKLTPPAGKPMPIVIPSYNGARKQANLTPLLAILLHKLGFPVVVHGVSEDPTRVLTETIFELMGITPTLHGGQAQAKLDEHQPVFMPVGAFCPPLEKQLAMRWRMGVRNSAHTLAKLATPFAEGEALRLSSVSHPEYIGRVAKFFSDIGGRALLMHGTEGEVYANPQRCPQINLIDREGMRVLYEKQDTAGSELLPQAKDPETTAQWIERCLAGSEPIPESLKIQMACCLVATGEAATISDGLARVNQAF
notes: YbiB, TrpD2 family protein of Escherichia coli, open reading frame amplified from BW25113 genomic DNA; cloned in pET28a (NheI/EcoRI) behind His6 and a thrombin site; its numbers there are shifted by 1; No thrombin cleavage is described; also called YbiB WT; YbiB dimer; source: E. coli BL21 (DE3) pLysS, purified (HisTrap FF, Superdex 200); not shown: His6, N-terminal, kept
B4: full-length E. coli YbiB protein, N-terminally His6-tagged (natural protein, UniProt P30177 1-320, looked up)
chain: MDYRKIIKEIGRGKNHARDLDRDTARGLYAHMLNGEVPDLELGGVLIALRIKGEGEAEMLGFYEAMQNHTIKLTPPAGKPMPIVIPSYNGARKQANLTPLLAILLHKLGFPVVVHGVSEDPTRVLTETIFELMGITPTLHGGQAQAKLDEHQPVFMPVGAFCPPLEKQLAMRWRMGVRNSAHTLAKLATPFAEGEALRLSSVSHPEYIGRVAKFFSDIGGRALLMHGTEGEVYANPQRCPQINLIDREGMRVLYEKQDTAGSELLPQAKDPETTAQWIERCLAGSEPIPESLKIQMACCLVATGEAATISDGLARVNQAF
notes: homodimer; No cleavage of the His6-tag is told; the pull-down names the tag on the protein; also called YbiB WT; TrpD2 protein YbiB; source: E. coli BL21 (DE3) pLysS, purified (HisTrap, SEC); not shown: His6, N-terminal, kept

Legend:
[1] = target: B3; experiment: ITC; MicroCal iTC200, 25°C, 20 mM HEPES pH 7.5, 150 mM NaCl, 5 mM MgCl2, 1 mM β-mercaptoethanol; ObgE or ObgE-derived peptide in the sample cell (50-75 µM), YbiB (WT or mutant) in the syringe (500 µM-1.4 mM); 'ligand in cell' function; biphasic isotherms fitted on a 'two sets of sites' model; subunit concentrations; parameters of each individual repeat; conditions: both partners purified
[2] = target: T1, ObgE (E. coli Obg GTPase), N-terminally His6-tagged (E. coli, UniProt P42641 1-390); experiment: as above; conditions: both partners purified
T1 construct: GTPase ObgE (Obg) of Escherichia coli, 390 residues; also called pET28a-obgE; source: E. coli BL21 (DE3) pLysS, purified (HisTrap FF, alkaline phosphatase treatment, Superdex 75), nucleotide-free; not shown: His6, N-terminal, kept
T1 sequence (P42641 whole entry): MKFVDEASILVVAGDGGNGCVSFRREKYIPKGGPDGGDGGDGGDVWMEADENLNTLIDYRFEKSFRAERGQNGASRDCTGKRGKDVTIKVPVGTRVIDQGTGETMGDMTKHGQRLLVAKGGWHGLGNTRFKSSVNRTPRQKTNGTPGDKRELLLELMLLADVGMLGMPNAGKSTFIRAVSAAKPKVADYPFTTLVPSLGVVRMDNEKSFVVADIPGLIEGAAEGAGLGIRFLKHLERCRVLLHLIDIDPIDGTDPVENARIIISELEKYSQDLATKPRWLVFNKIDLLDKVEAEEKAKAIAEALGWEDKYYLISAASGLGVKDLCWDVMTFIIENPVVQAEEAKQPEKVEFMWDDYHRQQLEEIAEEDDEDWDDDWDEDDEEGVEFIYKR

[3] = target: B1; experiment: as above; conditions: both partners purified
[4] = target: T2, N-terminally His6-tagged ObgE protein (Escherichia coli Obg) (E. coli, UniProt P42641 1-390); experiment: SEC-MALS; Superdex 200 5/150 GL increase; ObgE and YbiB alone at 1.5 mg/ml; YbiB and ObgE mixed 1:3 (20 and 60 μM); 20 mM HEPES pH 7.5, 150 mM NaCl, 5 mM MgCl2, 5% glycerol, 2 mM DTT; conditions: both partners purified
T2 construct: GTPase ObgE of Escherichia coli, whole protein, ORF in pET28a; monomer by SEC-MALS; nucleotide-free after alkaline phosphatase treatment; also called full-length ObgE; not shown: His6, N-terminal, kept
T2 sequence (P42641 whole entry): as above

[5] = target: the molecule itself; experiment: as above
[6] = target: T2, N-terminally His6-tagged ObgE protein …; experiment: SEC-SAXS; pre-formed YbiB-ObgE complex (mixed 1:3, isolated on Superdex 200, 7.6 mg/ml); 20 mM HEPES pH 7.5, 150 mM NaCl, 5 mM MgCl2, 2 mM DTT, 5% glycerol; molar mass by Bayesian inference; conditions: both partners purified
[7] = target: T2, N-terminally His6-tagged ObgE protein …; experiment: ITC; YbiB in the syringe (500 μM to 1.4 mM) titrated into ObgE constructs or ObgE-derived peptides in the cell (50-75 μM); 25°C; 20 mM HEPES pH 7.5, 150 mM NaCl, 5 mM MgCl2, 1 mM β-mercaptoethanol; 'two sets of sites' model with 'ligand in cell' for biphasic isotherms; subunit concentrations; conditions: both partners purified
[8] = target: B4; experiment: as above; conditions: both partners purified

Binder: B1
- Kd [1]: 10 µM and 15 µM

- stoichiometry N [2]: 0.71 and 0.94 and 1.29
B2: YbiB Arg92Glu, N-terminally His6-tagged (natural protein, E. coli, UniProt P30177 1-320, looked up)
chain: MDYRKIIKEIGRGKNHARDLDRDTARGLYAHMLNGEVPDLELGGVLIALRIKGEGEAEMLGFYEAMQNHTIKLTPPAGKPMPIVIPSYNGAEKQANLTPLLAILLHKLGFPVVVHGVSEDPTRVLTETIFELMGITPTLHGGQAQAKLDEHQPVFMPVGAFCPPLEKQLAMRWRMGVRNSAHTLAKLATPFAEGEALRLSSVSHPEYIGRVAKFFSDIGGRALLMHGTEGEVYANPQRCPQINLIDREGMRVLYEKQDTAGSELLPQAKDPETTAQWIERCLAGSEPIPESLKIQMACCLVATGEAATISDGLARVNQAF
notes: no measurement of its oligomeric state is reported; also called YbiB R92E; pET28a-ybiBR92E; source: E. coli BL21 (DE3) pLysS, purified (HisTrap FF, Superdex 200); not shown: His6, N-terminal, kept

Binder: B3
- stoichiometry N [3]: 0.66 and 0.632 and 0.64

Binder: B4
- stoichiometry N [4]: ~2 ObgE per YbiB dimer
- stoichiometry N [5]: 2
- stoichiometry N [6]: 2 ObgE per YbiB dimer
- KD of the first (high-affinity) binding event, two sets of sites [7]: 0.022 ± 0.001 µM
- KD of the second (low-affinity) binding event, two sets of sites [7]: 5 ± 1 µM

- Kd [2]: 5 µM and 4 µM and 10 µM
- stoichiometry N [2]: 1.14 and 0.99
B5: YbiB Arg123Glu, N-terminally His6-tagged (natural protein, E. coli, UniProt P30177 1-320, looked up)
chain: MDYRKIIKEIGRGKNHARDLDRDTARGLYAHMLNGEVPDLELGGVLIALRIKGEGEAEMLGFYEAMQNHTIKLTPPAGKPMPIVIPSYNGARKQANLTPLLAILLHKLGFPVVVHGVSEDPTEVLTETIFELMGITPTLHGGQAQAKLDEHQPVFMPVGAFCPPLEKQLAMRWRMGVRNSAHTLAKLATPFAEGEALRLSSVSHPEYIGRVAKFFSDIGGRALLMHGTEGEVYANPQRCPQINLIDREGMRVLYEKQDTAGSELLPQAKDPETTAQWIERCLAGSEPIPESLKIQMACCLVATGEAATISDGLARVNQAF
notes: no measurement of its oligomeric state is reported; also called YbiB R123E; pET28a-ybiBR123E; source: E. coli BL21 (DE3) pLysS, purified (HisTrap FF, Superdex 200); not shown: His6, N-terminal, kept

- binding result [8]: binds
B6: ObgE C-terminal peptide4 (residues 361-380 of ObgE) (peptide)
peptide: LEEIAEEDDEDWDDDWDEDD
notes: residues 375-380 (DWDEDD) are resolved in the crystal structure; also called peptide4-WW; SBL-OBGE-03; source: synthetic peptide (Fmoc SPPS, HPLC purified)

- Kd [8]: ~10 µM
B7: peptide4-AA (variant of ObgE peptide4 with both Trp residues substituted by Ala) (peptide, UniProt P42641 361-380, looked up)
peptide: LEEIAEEDDEDADDDADEDD
notes: source: synthetic peptide (Fmoc SPPS, HPLC purified)

Source: article PMC10123104, “YbiB: a novel interactor of the GTPase ObgE” (Nucleic Acids Research, 2023)
